Numbering of substitutions follows the chain as printed. Each block holds one binder with its values, some of them ahead of it.
Legend:
[1] = target: T1, mouse 129 SIRP-α (mouse (129 strain), UniProt P97797 32-150); experiment: SPR Koff +/-
T1 construct: also called m129
T1 chain: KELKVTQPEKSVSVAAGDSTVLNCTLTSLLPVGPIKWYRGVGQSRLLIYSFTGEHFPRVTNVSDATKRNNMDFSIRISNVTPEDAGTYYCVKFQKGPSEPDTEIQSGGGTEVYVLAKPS
Summary of the method: (§1)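 Runs took place at 25° C in PBS pH 7.4 containing 0.01% Tween-20 on a ProteOn XPR36 biosensor, with purified antibodies either amine-coupled to a GLC chip or captured through biotinylated Protein A on an NLC chip. SIRP analytes went in by one-shot kinetic injection at nominal concentrations based on A280 absorbance. Apparent rate constants came from a global simple Langmuir fit of double-referenced data, and KD was calculated as kd/ka.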

[2] = target: T2, human SIRP-α v1 (human, UniProt P78324 31-149); experiment: SPR
T2 construct: also called Human v1; Human V1
Summary of the method: as §1

[3] = target: T3, human SIRP-α v2 (human); experiment: SPR
T3 construct: also called Human v2; Human V2
Summary of the method: as §1

[4] = target: T4, mouse 129 SIRP-α D1 domain (mouse (129 strain), UniProt P97797 32-150); experiment: SPR, ProteOn, antibody on chip
T4 construct: also called m129
T4 chain: T1 chain
Description: (§2) All experiments were performed at 25° C. using a SPR-based ProteOn XPR36 biosensor (BioRad, Inc, Hercules, Calif.) equipped with GLC or NLC sensor chips. […] Purification was carried out by standard Protein A affinity column chromatography and eluted antibodies were stored in PBS buffer.
(§3) For the method using GLC chip, the analytes were injected and flowed over anti-SIRPα antibodies immobilized (˜1000 RUs) on GLC chips using Proteon™ Amine Coupling Kit. For the immobilization step, GLC chip was activated with EDAC/Sulpho-NHS 1:1 (Biorad) diluted 1/100 for 300 s at 25 μL/min. Anti-SIRPα antibodies were diluted to 80 nM concentration in 10 mM sodium acetate buffer pH 4.5 and immobilized to the chip at 30 μL/min for 50 s. Chip was inactivated with ethanolamine for 300 s at 25 μL/min. The analytes (e.g., SIRP-α from different species, SIRP-β, SIRP-γ) were injected in a “one-shot” kinetic mode at nominal concentrations of 100, 33, 11, 3.7, 1.2 and 0 nM. Association times were monitored for 90 s at 100 μL/min, and dissociation times were monitored for 1200 s. The surfaces were regenerated with a 2:1 v/v blend of Pierce IgG elution buffer/4M NaCl.
(§4) Next, the binding kinetics of various antibody clones to selected mouse SIRP-α proteins were determined as described above. Mouse proteins that were tested include BALBc (SEQ ID NO:10), BL6 (SEQ ID NO:9), NOD (SEQ ID NO:8), and m129 (SEQ ID NO:7) SIRP-α proteins. Antibody clones labeled as “c” were tested as full-length mouse IgG2a antibodies; antibody clones labeled as “a” were tested as full-length human IgG1 antibodies with L234A, L235A, G237A, and N297A mutations.

[5] = target: T5, NOD mouse SIRP-α D1 domain (mouse (NOD strain)); experiment: SPR, ProteOn, antibody on chip
T5 chain: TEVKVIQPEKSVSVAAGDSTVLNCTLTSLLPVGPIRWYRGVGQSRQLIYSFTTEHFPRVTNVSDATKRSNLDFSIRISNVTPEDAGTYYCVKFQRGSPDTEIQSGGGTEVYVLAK
Description: as §2, §3, §4

[6] = target: T6, C57BL/6 mouse SIRP-α D1 domain (mouse (C57BL/6 strain), UniProt P97797 32-148); experiment: SPR, ProteOn, antibody on chip
T6 sequence: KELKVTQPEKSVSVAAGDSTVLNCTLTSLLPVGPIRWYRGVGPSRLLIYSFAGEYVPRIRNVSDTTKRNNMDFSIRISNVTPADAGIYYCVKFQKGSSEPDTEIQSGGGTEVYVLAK
Description: as §2
(§5) The running buffer was PBS pH 7.4 with 0.01% Tween-20 (PBST+). All analytes were used at their nominal concentrations as determined by A280 Absorbance and using their molar calculated extinction coefficient.
as §3

[7] = target: T7, BALB/c mouse SIRP-α D1 domain (mouse (BALB/c strain)); experiment: SPR, ProteOn, antibody on chip
T7 chain: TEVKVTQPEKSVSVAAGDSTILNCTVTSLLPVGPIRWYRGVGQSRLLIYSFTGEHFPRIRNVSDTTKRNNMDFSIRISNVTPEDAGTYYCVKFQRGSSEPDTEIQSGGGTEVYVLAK
Description: as §2, §5, §3

T2 sequence (P78324 31-149 limits assumed): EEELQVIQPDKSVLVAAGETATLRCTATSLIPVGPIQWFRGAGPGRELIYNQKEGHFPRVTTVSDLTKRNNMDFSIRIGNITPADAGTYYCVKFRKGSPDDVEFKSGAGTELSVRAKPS
T3 sequence (chain, as listed by the source limits assumed): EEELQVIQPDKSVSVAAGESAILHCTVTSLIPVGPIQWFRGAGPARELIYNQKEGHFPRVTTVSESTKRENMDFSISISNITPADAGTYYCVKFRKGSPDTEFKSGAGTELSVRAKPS

binding result [1]: no binding | Kd [2]: 0.426 nM | Kd [3]: 1.86 nM
B1: antibody 132 (antibody, V domains shown)
VH: DVQLVESGGGVVRPGESLRLSCAASGFSFRSYAMNWVRQAPGEGLEWVSRINSGGGGTDYADSVKGRFTISRDNSKNTLYLQMNSLRAEDTAVYYCAKQYDWNSFFDYWGLGALVTVSS
VL: ETVLTQSPATLSVSPGERATLSCRASQTVGSKLAWHQQKPGQAPRLLIYDASNRATGIPDRFSGSGSGTDFTLTISSPQTEDSAVYYCQQYYYWPPYRFGGGTKVEIK
notes: also called AB132; S132

binding result [1]: no binding
B2: antibody 198 (antibody, V domains shown)
VH: B1 VH with R30S, Y32H, D62E, K76E, S104G
VL: B1 VL with S52T, P78L
notes: also called S198

binding result [1]: no binding
B3: antibody 191 (antibody, V domains shown)
VH: B1 VH with R30S, D62E, K76E, S104G
VL: B1 VL with S52T, S77G, P78L
notes: also called S191

Kd [4]: 22 nM | koff [4]: 0.0118 s⁻¹ | kon [4]: 534000 M⁻¹ s⁻¹ | Kd [5]: 1.43 nM | koff [5]: 0.00143 s⁻¹ | kon [5]: 999000 M⁻¹ s⁻¹ | Kd [6]: 15 nM | koff [6]: 0.00619 s⁻¹ | kon [6]: 412000 M⁻¹ s⁻¹ | Kd [7]: 5.31 nM | koff [7]: 0.00412 s⁻¹ | kon [7]: 776000 M⁻¹ s⁻¹
B4: AB3c (antibody, mouse IgG2a, V domains shown)
VH: AVTLDESGGGLQTPGGALSLVCKASGFIFSDYGMNWVRQAPGKGLEFVAQITSGSRTYYGAAVKGRATISRDNRQSTVKLQLNNLRAEDTGIYFCARDFGSGVGSIDAWGNGTEVIVSS
VL: ALTQPASVSANLGGTVKITCSGSRGRYGWYQQRSPGSAPVTVIYRDNQRPSNIPSRFSSSTSGSTSTLTITGVQADDESVYFCGSYDGSIDIFGAGTTLTVL
notes: Full-length mouse IgG2a

binding result [1]: no binding | Kd [2]: 0.157 nM | Kd [3]: 0.0501 nM
B5: antibody 121 (antibody, V domains shown)
VH: VQLVESGGGVVQPGGSLRLSCAASGFSFSNFAMTWVRQAPGEGLEWVSTIGSGDTYYADSVKGRFTISRDNSKNTLYLQMNSLRAEDTAVYYCAKDSTVSWSGDFFDYWGLGTLVTVSS
VL: EIVLTQSPATLSVSPGERATFSCRASQNVKNDLAWYQQRPGQAPRLLIYAARIRETGIPERFSGSGSGTEFTLTITSLQSEDFAVYYCQQYYDWPPFTFGGGTKVEIK
notes: also called S121

binding result [1]: no binding | Kd [2]: 0.214 nM | Kd [3]: 0.0856 nM
B6: antibody 120 (antibody, V domains shown)
VH: B5 VH with L114R
VL: B5 VL
notes: also called S120

Kd [4]: 0.487 nM | koff [4]: 0.000101 s⁻¹ | kon [4]: 207000 M⁻¹ s⁻¹ | Kd [5]: 3.42 nM | koff [5]: 0.00101 s⁻¹ | kon [5]: 296000 M⁻¹ s⁻¹ | Kd [6]: 9.49 nM | koff [6]: 0.0014 s⁻¹ | kon [6]: 147000 M⁻¹ s⁻¹ | Kd [7]: 15 nM | koff [7]: 0.00226 s⁻¹ | kon [7]: 150000 M⁻¹ s⁻¹
B7: AB27c (antibody, mouse IgG2a, V domains shown)
VH: DVQLVESGGGVVRPGESLRLSCAVSGFRFSSYAMSWVRQAPGKGLEWVSGISSGGDTYYVDSVKGRFTISRDNSKNTLYLQVNSLTAEDTAIYYCARETWNHLFDYWGLGTLVTVSS
VL: ALTQPASVSADLGETVKITCSGGDSSSHYYGWYQQKSPGSAPVTVIYSDDERPSDIPSRFSGSASGSTATLTITGVRVEDEAIYYCGAYDGSTYANTFGAGTTLTVL
notes: Full-length mouse IgG2a

binding result [1]: no binding
B8: antibody 163 (antibody, V domains shown)
VH: DVQLVESGGGLVRPGESLRLSCAASGFTFTNYAVTWVRQAPGEGLEWVSLISVTGTTYYADSVKGRFTISRDNSKSTLYLQMNGLRAEDTAVYYCAKVTWKNVFDYWGLGTLVTVSS
VL: EIVLTQSPGTLSVSPGERATFSCRASQTVGSKLAWYQQKPGQAPRLLIYDANTRATGIPARFSGSGSGTEFTLTISSLQSEDFAVYYCQQHTDWPPYTFGGGTKVEIK
notes: also called S163

binding result [1]: no binding
B9: antibody 164 (antibody, V domains shown)
VH: B8 VH
VL: B8 VL with G66R
notes: also called S164

binding result [1]: no binding
B10: antibody 162 (antibody, V domains shown)
VH: B8 VH with G84S
VL: B8 VL
notes: also called S162

Kd [4]: 0.0587 nM | koff [4]: 2.07e-05 s⁻¹ | kon [4]: 352000 M⁻¹ s⁻¹ | Kd [5]: 3.9 nM | koff [5]: 0.00143 s⁻¹ | kon [5]: 366000 M⁻¹ s⁻¹ | Kd [6]: 2.81 nM | koff [6]: 0.000399 s⁻¹ | kon [6]: 142000 M⁻¹ s⁻¹ | Kd [7]: 9.64 nM | koff [7]: 0.00292 s⁻¹ | kon [7]: 303000 M⁻¹ s⁻¹
B11: AB25c (antibody, mouse IgG2a, V domains shown)
VH: DVQLVESGGGVVRPGESLRLSCEASGFTFSSNAMSWVRQAPGKGLEWVAGISSGSDTYYGDSVKGRLTISRDNSKNILYLQMNSLTAEDTAVYYCARETWNHLFDYWGLGTLVTVSS
VL: ALTQPASVSANPGETVEITCSGGSYSSYYYAWYQQKSPGSAPVTLIYSDDKRPSNIPSRFSGSASGSTATLTITGVRAEDEAVYFCGGYDQSSYTNPFGAGTTLTVL
notes: Full-length mouse IgG2a

Kd [4]: 0.0588 nM | koff [4]: 3.31e-05 s⁻¹ | kon [4]: 563000 M⁻¹ s⁻¹ | Kd [5]: 0.64 nM | koff [5]: 0.000479 s⁻¹ | kon [5]: 749000 M⁻¹ s⁻¹ | Kd [6]: 0.876 nM | koff [6]: 0.000241 s⁻¹ | kon [6]: 276000 M⁻¹ s⁻¹ | Kd [7]: 1.34 nM | koff [7]: 0.000618 s⁻¹ | kon [7]: 462000 M⁻¹ s⁻¹
B12: AB21c (antibody, mouse IgG2a, V domains shown)
VH: DVQLVESGGGVVRPGESLRLSCAASGFTFSSNAMSWVRQAPGKGLEWLAGISAGGSDTYYPASVKGRFTISRDNSKNTLYLQMNTLTAEDTAVYYCARETWNHLFDYWGLGTLVTVSS
VL: ALTQPASVSANPGETVKIACSGGDYYSYYYGWYQQKAPGSALVTVIYSDDKRPSDIPSRFSGSASGSTATLTITGVRAEDEAVYYCGGYDYSTYANAFGAGTTLTVL
notes: Full-length mouse IgG2a

Kd [4]: 0.0955 nM | koff [4]: 1.98e-05 s⁻¹ | kon [4]: 207000 M⁻¹ s⁻¹ | Kd [5]: 0.564 nM | koff [5]: 0.000232 s⁻¹ | kon [5]: 412000 M⁻¹ s⁻¹ | Kd [6]: 5.8 nM | koff [6]: 0.000619 s⁻¹ | kon [6]: 107000 M⁻¹ s⁻¹ | Kd [7]: 3.41 nM | koff [7]: 0.000762 s⁻¹ | kon [7]: 224000 M⁻¹ s⁻¹
B13: AB66c (antibody, mouse IgG2a, V domains shown)
VH: B12 VH with N32Y, P61I, A62D, S75P, T78S, N84S, T85S
VL: ALTQPASVSANPGETVKITCSGGDYYSTYYAWYQQKSPGSAPVTVIHSDDKRPSDIPSRFSGSASGSAATLIITGVRVEDEAVYYCGGYDGRTYINTFGAGTTLTVL
notes: Full-length mouse IgG2a
